Assay results from patent US20190359653A1, “SELECTIVE PEPTIDE INHIBITORS OF FRIZZLED” (Genentech, Inc., priority 2016, published 2019).

Molecular target: FZD7 class proteins
Assay: ELISA of biotinylated Wnt binding to FZD CRD-Fc with or without peptide

B1: Biotinylated Wnt5a (ligand)
chain: IIGAQPLCSQLAGLSQGQKKLCHLYQDHMQYIGEGAKTGIKECQYQFRHRRWNCSTVDNTSVFGRVMQIGSRETAFTYAVSAAGVVNAMSRACREGELSTCGCSRAARPKDLPRDWLWGGCGDNIDYGYRFAKEFVDARERERIHAKGSYESARILMNLHNNEAGRRTVYNLADVACKCHGVSGSCSLKTCWLQLADFRKVGDALKEKYDSAAAMRLNSRGKLVQVNSRFNSPTTQDLVYIDPSPDYCVRNESTGSLGTQGRLCNKTSEGMDGCELMCCGRGYDQFKTVQTERCHCKFHWCCYVKCKKCTEIVDQFVCK
modifications: Biotinylated with the Pierce reagent cat no. 21338; the positions are not stated and the letters are unchanged. The lipid modification of Wnt (fatty acyl moiety) is not carried by the letters.
B1 gave a fold enhancement of binding by Fz7-21 or dFz7-21 of 1.5 to 2 fold.
